Changes are numbered by the printed parent chain.

In test [1] the target is T1, Flag-USP21 C221A (catalytically inactive mutant) (human, UniProt Q9UK80 1-565, C221A).
T1 construct: also called C221A mutant; source: HEK293T, transfected, in lysate (co-IP); for the GST pull-down 'lysed from HEK293T cells' (methods), 'purified recombinant protein' (results)
T1 sequence (looked up): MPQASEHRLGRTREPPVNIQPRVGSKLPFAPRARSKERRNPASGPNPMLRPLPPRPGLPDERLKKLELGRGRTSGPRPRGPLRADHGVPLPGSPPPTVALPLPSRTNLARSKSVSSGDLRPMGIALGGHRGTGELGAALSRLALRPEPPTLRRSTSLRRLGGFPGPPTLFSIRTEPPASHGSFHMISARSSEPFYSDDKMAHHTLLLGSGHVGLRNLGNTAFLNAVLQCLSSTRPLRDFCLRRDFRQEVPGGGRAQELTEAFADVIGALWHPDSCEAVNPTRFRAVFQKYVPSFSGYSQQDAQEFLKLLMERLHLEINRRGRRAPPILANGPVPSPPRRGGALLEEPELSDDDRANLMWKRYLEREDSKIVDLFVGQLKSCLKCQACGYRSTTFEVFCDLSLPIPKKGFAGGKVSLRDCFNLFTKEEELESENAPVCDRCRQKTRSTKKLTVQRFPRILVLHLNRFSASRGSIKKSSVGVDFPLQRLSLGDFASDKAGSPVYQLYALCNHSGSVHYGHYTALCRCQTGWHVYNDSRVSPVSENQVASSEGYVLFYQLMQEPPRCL
As to the kind of experiment: pull-down; bacterially expressed GST or GST-FOXD1 immobilised (GST Protein Interaction Pull-Down Kit, Thermo Scientific), incubated with Flag-USP21 WT or C221A from HEK293T cells; analysed by Coomassie Brilliant Blue. To be noted: both partners purified.

Test [2] deals with T2, Flag-USP21 WT (ubiquitin-specific peptidase 21) (human, UniProt Q9UK80 1-565).
T2 construct: ubiquitin-specific peptidase 21 (USP21), wild type; overexpression plasmid bought from GeneChem; source: HEK293T, transfected, in lysate (co-IP); for the GST pull-down 'lysed from HEK293T cells' (methods), 'purified recombinant protein' (results)
T2 sequence (looked up): T1 sequence (looked up) with A221C
The description is as above. Particulars: both partners purified.

B1: GST-FOXD1 (natural protein, UniProt Q16676 1-465, looked up)
chain: MTLSTEMSDASGLAEETDIDVVGEGEDEEDEEEEDDDEGGGGGPRLAVPAQRRRRRRSYAGEDELEDLEEEEDDDDILLAPPAGGSPAPPGPAPAAGAGAGGGGGGGGAGGGGSAGSGAKNPLVKPPYSYIALITMAILQSPKKRLTLSEICEFISGRFPYYREKFPAWQNSIRHNLSLNDCFVKIPREPGNPGKGNYWTLDPESADMFDNGSFLRRRKRFKRQPLLPPNAAAAESLLLRGAGAAGGAGDPAAAAALFPPAPPPPPHAYGYGPYGCGYGLQLPPYAPPSALFAAAAAAAAAAAFHPHSPPPPPPPHGAAAELARTAFGYRPHPLGAALPGPLPASAAKAGGPGASALARSPFSIESIIGGSLGPAAAAAAAAQAAAAAQASPSPSPVAAPPAPGSSGGGCAAQAAVGPAAALTRSLVAAAAAAASSVSSSAALGTLHQGTALSSVENFTARISNC
notes: Forkhead box D1 (FOXD1) fused to GST; also called immobilized GST-FOXD1; purified GST-FOXD1; source: bacterially expressed; 'purified' (results)
Consider B1, for which the binding result in test [1] and in test [2] was “binds” each time.
